Experimental findings from US20080274110A1 (published 2008) are described below.

This assay addresses T1, β2 microglobulin (human, UniProt P61769 21-119).
T1 construct: The 12 kD band on its own, as probed by Western blotting; also called molecule of approximately 12 KD
Kind of assay: Western blotting with the 2D7 antibody. From the text: As a result, a molecule (approximately 12 kD) that precipitates specifically in RPMI8226 and U266 cells was observed (FIG. 3). This molecule was not detected by Western blotting using the 2D7 antibody, but since it is at least reproducibly precipitated by the 2D7 antibody, it was strongly predicted to be the 2D7 antigen itself, or a molecule that co-precipitates with the 2D7 antigen.
For orientation: In western blotting, separated proteins are transferred to a membrane and probed.

T1 sequence (P61769 21-119 limits assumed): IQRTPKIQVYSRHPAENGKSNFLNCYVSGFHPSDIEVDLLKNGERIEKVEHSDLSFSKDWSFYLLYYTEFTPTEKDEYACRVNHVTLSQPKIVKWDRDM

B1: 2D7 antibody (antibody, mouse IgG2b, V domains shown)
VH: QVQLQQSGPELVKPGASVKMSCKASGYTFTDYFIHWVKQRPGQGLEWIGWIFPGDDTTDYNEKFRGKTTLTADKSSSTAYILLSSLTSEDSAMYFCVRSDDFDYWGQGTTLTVSS
VL: QIVLTQSPAIMSASPGEKVTITCSASSSVSYMHWFQQKPGTFPKLWIYSTSNLASGVPTRFSGSGSGTSYSLTISRMEAEDAATYYCQQRTSYPPTFGSGTKLEIK
notes: Whole mouse monoclonal antibody purified on Protein A from ascites of the 2D7 hybridoma (University of Tokushima); Primers for mouse IgG2b constant regions were used to clone its variable regions
B1: the binding result is on record as “no binding”.
